# From patent US20120107933A1 (GOVERNMENT OF THE UNITED STATES AS REPRESENTED BY THE …, published 2012)
# T1: mouse mesothelin (form not stated) (mouse, UniProt Q61468 298-600)
# T1 sequence (looked up): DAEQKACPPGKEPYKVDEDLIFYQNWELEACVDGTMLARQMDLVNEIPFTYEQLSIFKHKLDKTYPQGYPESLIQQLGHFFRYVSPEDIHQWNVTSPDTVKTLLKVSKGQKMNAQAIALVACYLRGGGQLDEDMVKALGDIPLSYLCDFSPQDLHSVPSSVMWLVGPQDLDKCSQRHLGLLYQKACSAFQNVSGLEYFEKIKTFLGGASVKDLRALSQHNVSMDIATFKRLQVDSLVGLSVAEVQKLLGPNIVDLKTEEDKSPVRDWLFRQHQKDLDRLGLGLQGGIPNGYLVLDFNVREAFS
# Columns and labels:
# [1] = target: human mesothelin on the cell surface (A431/H9 transfectants and human cancer cell lines) (human) (UniProt Q13421); assay: cell-based or functional assay
# Sequence of human mesothelin on the cell surface (A431/H9 transfectants and human cancer cell lines) (human) (Q13421 other isoform, or with tags, fused parts or gaps limits assumed): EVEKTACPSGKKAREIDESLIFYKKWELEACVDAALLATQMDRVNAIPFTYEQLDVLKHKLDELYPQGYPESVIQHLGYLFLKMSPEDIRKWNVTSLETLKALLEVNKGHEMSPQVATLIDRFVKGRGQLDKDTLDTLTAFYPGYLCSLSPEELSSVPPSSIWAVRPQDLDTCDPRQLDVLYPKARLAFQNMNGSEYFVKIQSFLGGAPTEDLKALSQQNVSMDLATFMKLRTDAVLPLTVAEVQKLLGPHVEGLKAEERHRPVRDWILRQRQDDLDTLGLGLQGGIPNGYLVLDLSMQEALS
# [2] = target: rabbit IgG Fc-human mesothelin fusion protein (full-length extracellular domain, 296-581) (rabbit; human) (UniProt Q13421); assay: SPR (Biacore T100), […], kinetic titration
# Sequence of rabbit IgG Fc-human mesothelin fusion protein (full-length extracellular domain, 296-581) (rabbit; human) (Q13421 other isoform, or with tags, fused parts or gaps limits assumed, form in doubt): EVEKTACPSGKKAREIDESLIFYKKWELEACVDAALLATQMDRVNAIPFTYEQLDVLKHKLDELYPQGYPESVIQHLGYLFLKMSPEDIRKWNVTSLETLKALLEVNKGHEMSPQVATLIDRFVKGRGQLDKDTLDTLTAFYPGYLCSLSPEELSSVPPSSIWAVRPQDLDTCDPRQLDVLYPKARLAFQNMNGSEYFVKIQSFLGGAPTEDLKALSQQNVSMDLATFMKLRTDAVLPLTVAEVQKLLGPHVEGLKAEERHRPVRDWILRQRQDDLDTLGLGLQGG
# [3] = target: T2, rabbit IgG Fc-human mesothelin fusion protein (full-length extracellular domain, 296-581) (rabbit; human, UniProt Q13421 296-581)
# T2 sequence (Q13421 other isoform, or with tags, fused parts or gaps limits assumed, form in doubt): as above
# [4] = target: T2, rabbit IgG Fc-human mesothelin fusion …; assay: SPR (Biacore T100), rFc-mesothelin injected over amine-coupled HN1 mAb, kinetic titration
# Protocol: Binding experiments were performed on a BIACORE T100 instrument (GE Healthcare, Piscataway N.J.). […] Hepes buffer (pH-7.4) is used as the running buffer. The rFc-mesothelin (20 μg/mL) was captured on the CM5 sensor chip using a manual injection targeting about 500 RU density. […] Data were fit to a simple 1:1 interaction model, a heterogeneous ligand model or a two state binding model using the global data analysis software provided by GE Healthcare (Biaevaluation 4.1).
# [5] = target: human mesothelin (form not stated) (human, UniProt Q13421 296-581)
# Sequence of human mesothelin (form not stated) (Q13421 other isoform, or with tags, fused parts or gaps limits assumed): as the sequence (Q13421 other isoform, or with tags, fused parts or gaps limits assumed, form in doubt) above
# [6] = target: T1, mouse mesothelin (form not stated)
molecule,measurement,setting,value
"HA22, an anti-CD22 scFv","Cytotoxic Assays (WST), IC50 of cell viability, H9 cells",[1],> 1 µg/mL
same,"Cytotoxic Assays (WST), IC50 of cell viability, H226 cells",[1],> 1 µg/mL
HN1 scFv immunotoxin (HN1 scFv fused to truncated Pseudomonas exotoxin PE38) (from UniProt P11439 278-389; P11439 406-638),"Cytotoxic Assays (WST), IC50 of cell viability, H226 cells",[1],0.013 µg/mL
same,Kd,[2],100 nM
"HN1 fully human IgG (IgG gamma1 kappa) (antibody, V domains shown, also called HN1 IgG; HN1 mAb) VH: QVQLVQSGAEVKRPGASVQVSCRASGYSINTYYMQWVRQAPGAGLEWMGVINPSGVTSYAQKFQGRVTLTNDTSTNTVYMQLNSLTSADTAVYYCARWALWGDFGMDVWGKGTLVTVSS VL: DIQMTQSPSTLSASIGDRVTITCRASEGIYHWLAWYQQKPGKAPKLLIYKASSLASGAPSRFSGSGSGTDFTLTISSLQPDDFATYYCQQYSNYPLTFGGGTKLEIKR",fold better affinity than the scFv molecule,[3],> 30 fold
same,Kd,[4],3 nM
"HN1 antibody (form not stated) (antibody, V domains shown) VH: QVQLVQSGAEVKRPGASVQVSCRASGYSINTYYMQWVRQAPGAGLEWMGVINPSGVTSYAQKFQGRVTLTNDTSTNTVYMQLNSLTSADTAVYYCARWALWGDFGMDVWGKGTLVTVSS VL: DIQMTQSPSTLSASIGDRVTITCRASEGIYHWLAWYQQKPGKAPKLLIYKASSLASGAPSRFSGSGSGTDFTLTISSLQPDDFATYYCQQYSNYPLTFGGGTKLEIK",Kd,[5],~7.5 nM
"HN2 antibody (form not stated) (antibody, V domains shown) VH: EVQLLESGGGLVQPGGSLRPSCAASGFTFSSYAMSWVRQAPGKGLEWVSAISGSGGSTHYADSVKGRFTISRDNSKNTLYLQMNSLRAEDTAVYYCVRGGALGFDNWGRGTMVTVSS VL: VLTQPPSVSEAPRQRVTISCSGSTSNIGSNVVNWYQQFPGKPPKVVIYYDDLVASGVSDRFSGSRSGTSASLAISGLQSEDEADYYCSAWDDSLNAWVFGGGTKVTV",Kd,[5],~1.5 nM
same,Kd,[6],~1.5 nM
